# Assay results published in the DeepSol protein solubility set.
# Assay: soluble on expression in E. coli; label from the status in PepcDB or PDB records
row,Sequence,soluble on expression in E. coli
1,MDCHKLRRLLKKEEGPKLDFKAEYDLSTESGKKELTKDVIAIANSRGGRGYIILGIEDKTKRVLGIEPKRYTEEQIQQIIYNRCDPPVPISVDFVGLDGKTVGVITVYRSSHKPHQMIQNGAFYIRRGSTTDIARRSEIANLFQENGLMTYETVILKNVGMEELDFGLIKDYFKTLNVFSDNPSELILEALGIIGQKSDTEEYHPTIGGLLLFGKNPSLYLPHVYVKVVYNGEARLFFGNILKMLDDVSDYMRSIIKVEGYPFNALEEVIANALVHRDYLDVSKGIVITVTDKNIEISNPGALIAGNSVYSFSREINPDRRNPWLYQRLLTLDPKKRFMKSGVGLKRVKKSFTGIGPVKFINIGSQNLFKVLLPIGKKQESTSDTSGLF,soluble
2,MDDHAFAAPAPAAPTAPALPMAVLAELTHRCPLQCPYCSNPVELEAASRELSTEDWQRVIGELAALGVLQIHFSGGEPLVRRDLVALVAHADRAGLYTNLITSAVMFTRAKVAELAEAGLAHVQVSLQGASAPVAERIGGFRGGHAKKIEAAAWVRAEGMALTLNAVMHRQNLDELPRIVEMAVEMGAQRLEVAHVQYYGWALKNRAALMPTLAQLDEATRIVEEAQARLSGVLAIDYVIPDYYAVRPKTCMGGWGRQFFNISPSGKVLPCHAAETITGLRFDSVREAPLAEIWQRSEALNLYRGTGWMQEPCRSCIHAEEDFGGCRCQAFALAGDAAATDPACAKSPLHAQLFSLAGAEAEAGADRFLYRNFSGGTPEG,not soluble
3,MDDLSPDSALPPAGSAQDNDAPRQLVVCIDGTSNRFGDQPTNVVRLYRSLSRDPRRVLAYYDQGVGTFGLKETLFEWQKFPSRIAGLAFGWGLKRNVEGAYRFLAEHYRPGDQIFLFGFSRGAYAVRVLAAMLRAVGLIDAHQPHLFDYAWTLLTTRMPPRDEDKRAGTRRRGPDFGLLGRFRKVFGRQVKVHFLGLFDTVTSVGWVYDPLTVPYSSNNEMVDVVRQALAIDECRCFFRQNLWFGEKDRKSDVLQVWFPGMHSDVGGGYAPKDSRLALVAFTWMLGEALEAGLHVDPARSRDQLRARSKQGPDPTAPILPVMTRPWRLAEWLPLLVWDRRSGNRAWRWSRGRPRSRPLEPVGQETRVKLHRSVQRRLDECPDYRPCNLPALERCDLIDDSPLLDGYRLEHHHHHH,not soluble
4,MDDRLYAPATERNRDAILAVLKDELRSPGTVLEIASGTGEHGAYFAPQLPDYFWQPSDPNEESRRSIAAWRSHVNAPNLGEAIAIDVTRSDWVESVPEFPQPVVAIAAINLIHISPWEATLGLFAGAKQLLSVDGLIYLYGAYKRGGQHTAPSNEAFDASLQARNPAWGARNLEDVTAVAEAEQFRLDRIVEMPSNNLSVCFRAIALEHHHHHH,soluble
5,MDDSMDYPDRDGDDLDQFQGTARSQVVQNQPHDEEVNLSESESFAGADEPPAAPRDASLIESHDMDEGPAAPARTLSPTGYEAGKHAPGGIANSDEAPPGAYNAQEYKHLNVGEDVRELFSYIGRYKPQTVELDTRIKPFIPDYIPAVGGIDEFIKVPRPDTKPDYLGLKVLDEPAAKQSDPTVLTLQLRQLSKEAPGAKADMVGRLEHTDENKAKKIQQWIASINDIHKAKPAATVNYSKRMPEIEALMQEWPPEVETFLKTMHMPSGDVELDIKTYARLVCTLLDIPVYDDPVESLHVLFTLYLEFKNNPIFRQHMEMENKLDGMSGGGGGMMGGGADVLGL,not soluble
6,MDDVRLHAIYQDITRDYLPPASLNHLMLLSKQTQHKLSFKSAPIPDLQPFFKNFTSKTPGSAKESPCSSTAKISSSISISSQCIFNVVILSFVFTSQNLNLPSHPALHNVSPESLNDRLMTQLECANSPRLACELWVGTDKEPILSPNSVSYRVMQPNEFES,soluble
7,MDEAYKMRCDWYHHGELVSGGESESKFSQLNDEVVELYQAAEYLDEEFAGMVHLGEIVERDDKKEDEFLAKLADAETPLYPSCFNHSKLSAIMSLFTLKTKNGWSDKSHNDLLETLPEMLLEDNVLHSSLYEVKKFLKSFDMG,not soluble
8,MDEFGSLLGDSPRSSVNNWEKGVSIPKRDKLEKIAILGNMLPDQILYGRADEYLYDLIDSSFNVKFSDNILYEIFESVPPEKRSYDDLMWLAVAKYFIDNGTYGKVVGKFNYISMLGIPNLYTGSYQNEFIEQREDYKQQEVKYYVYADPEKNILHIMPFVPNEKNIELLYEFPELLEQQADHEVFTANFEQIGLTLKGSTIVYYGIDKQKLEAKTQAYKYDEAVDLYRIAQLPETLSMFDDEIQKQISFLKSK,not soluble
